# ± gives the uncertainty stated by the source.
# Assay: amyloid nucleation score (Sup35N fusion, yeast selection) (log enrichment); library NNK1; higher = more nucleation; inactive = no reads after selection
# Method in brief: (§1)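 Using DiMSum, nucleation scores were taken as the log enrichment of output over input reads, centred on the mode score of non-aggregating sequences. The input and output reads came from Illumina sequencing of plasmid inserts, with sequences under 100 input reads excluded. The yeast were psi-negative, expressed Sup35N fused to peptides of 20 random codons, were induced with 100 μM copper sulfate for 24 hours, and were grown 7 days at 30°C on medium lacking adenine and uracil.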
row,Substance,amyloid nucleation score
1,CPGNIIYTFPIDVPKHG,0.641 ± 0.79
2,KNSIYSCVTRTFSPMVLRYC,0.557 ± 0.54
3,HWSSSVSVNGVRYTFMSTSR,-2.08 ± 2.7
4,DASLVGLQLSHHSILFHCSM,0.021 ± 1.2
5,LGESTGIFFYGEIRPYLNGS,-0.148 ± 0.64
6,GNSWTSVVLHYFGSFSWGVT,inactive
7,ERKRTFY,0.536 ± 0.41
8,SDVVGGYWEDKTSSYGSRLM,0.423 ± 0.52
9,VVCQSDILDLSMWTMMGVSM,-0.823 ± 0.66
10,RSSRAPWRSSCGGMF,-0.494 ± 0.48
11,AQARWCWRLH,0.963 ± 0.69
12,HIWLVVKKFPNIEHSIMIGS,-0.334 ± 1.2
13,HKRLVGSYWFIFYSVTRYQE,-0.685 ± 1.7
14,SFGKVPFDLPKNFPRVSSVT,-0.276 ± 0.33
15,TEMDDF,0.875 ± 0.54

# Assay: amyloid nucleation score (Sup35N fusion, yeast selection) (log enrichment); library NNK2; higher = more nucleation; inactive = no reads after selection
# Method in brief: as §1
row,Substance,amyloid nucleation score
1,HVWGQLSCFARVALSDRSKM,3.07 ± 0.16
2,MVVGFRLPERLTYWRGGHMS,5.324 ± 0.047
3,FVQSNYDSSF,inactive
4,CFISQILEFCCSFIFSRDFF,0.286 ± 0.27
5,CEVFYSVGRSK,-0.633 ± 1.1
6,NYGSTLVDWRVRFTRTRTWS,0.503 ± 0.3
7,WMRSIWLSQHFLS,0.292 ± 0.41
8,DSSLKLGNTETFIDRSMLCN,-0.407 ± 0.4
9,SCRIFFE,-0.062 ± 0.65
10,LFPSLMAVNVQRSDTGPSHG,1.2 ± 0.45
11,LCISIRD,-0.111 ± 0.8
12,HNLWCDISLFGHIYRGRGTM,7.21 ± 0.08
13,TDGELDSPQ,0.165 ± 0.37
14,CSFLYIGLVIPSFEYDHALL,4.171 ± 0.041
15,AIWVMVANSMHCCVA,8.622 ± 0.027
16,RYRSFICALLRGFTDLACL,-1.53 ± 1.1
17,IMRMNVMCGVRYPYALFALL,inactive
18,TWYPIAFKTGCEMLTERSM,6.435 ± 0.035
19,HNNCNRFCQSIVLH,6.34 ± 0.078
20,IDFVVIKTLGMCDITYLYM,-0.573 ± 1.1
21,LWVVQTVDHTSKSSSVWSSL,4.16 ± 0.078
22,RRFTINFKDK,-1.2 ± 0.78
23,VTCGV,0.179 ± 0.56

row,Substance,amyloid nucleation score
1,MIFYDAIGWKLGNRGSN,-0.728 ± 0.45
2,LVWRDV,0.729 ± 0.51
3,GTWKVGQSYVVRVRLFFLLW,-0.369 ± 0.36
4,VAQSRLT,0.521 ± 0.8
5,RPFDHANRCRSAVYT,1.63 ± 0.47
6,LTLHICRAAVYSYGTLS,1.63 ± 0.12
7,IVICSVFSIMTRLFRSVNGR,8.429 ± 0.062
8,ILGSFEHSTQGKYSYWGMRG,4.51 ± 0.066
9,SLMETGYTPSRERMMHHM,-0.095 ± 0.33
10,VYCIVRMYIALWCYVLDYVE,0.34 ± 0.36
11,RVCPLLYYGRDLLQLTMSSM,0.314 ± 0.53
12,LNEVFDLVPSYCKFSVVRGL,-1.14 ± 0.64
13,RRIIQCSDEFVLYQCNMLRC,0.759 ± 0.41
14,IDVLYCHDSL,0.311 ± 0.42
15,AGHWLCLVTNFVVRGGDKLF,2.76 ± 0.13
16,GFRDMGDHIDVREKFSWADA,inactive
17,FWSDSVVFRPDTVRLERSLG,0.025 ± 1.1
18,SQHMLEL,-0.633 ± 1.1
19,WEGNEHWKCTENLVLAKTGH,inactive
20,VSSVRIILLAWWSMRTLYFD,-2.43 ± 0.78
21,GIQGLSLYRLLSPALWSPSG,0.168 ± 0.49
22,VPPSLLYLQTRDSPPEERMM,0.374 ± 0.64
23,SVSVEYWCSLWDRRDKGSSQ,0.619 ± 0.81

row,Substance,amyloid nucleation score
1,VRCRDENHVVELSGGEVPDS,0.066 ± 1
2,RWCSVGNLVRSITR,0.464 ± 0.57
3,LSPYYSLCVSGSTWSAVQPL,0.476 ± 0.51
4,DLSRLCVGHAVI,0.446 ± 0.18
5,WINPFAQWMNSVQIFK,0.466 ± 0.12
6,IYLSLATCSGRRRSYSKPSR,0.645 ± 0.47
7,YEYDLSPCSVVRRVTLKRMV,1.55 ± 0.4
8,YFGGLANKMLILSWR,0.294 ± 0.24
9,IPYSSPS,inactive
10,YISMSMLGCLRTLREVHRDR,3.21 ± 0.11
11,LRGYVY,0.228 ± 1
12,NGVIRVSWSTR,6.48 ± 0.087
13,LYVNLRCRNYYVAVPVGDWD,4.9 ± 0.068
14,GSVRSMVGFNACRTSLYESC,0.012 ± 1
15,FCPVFST,-0.127 ± 1
16,VMNSVHVFQYTSCCLILVGL,6.945 ± 0.062
17,GTPVSLNFVLESRTRYQMGA,inactive
18,LLPRDALFPPIFVIISECVF,-0.063 ± 0.45
19,FKSQIDSECMFYLLG,-0.018 ± 0.17
20,SGPIEIRPCIPRKLVCSYRH,1.01 ± 0.53
21,YLSVPSGQSGGDGFNDESSV,inactive
22,CRSWTHKSHIPVKLSNDTMS,-0.106 ± 0.63
23,LHIFSSWTRW,-0.451 ± 0.76

row,Substance,amyloid nucleation score
1,KENDVNLD,1.5 ± 0.44
2,GVSFSDYLSACCLDAGVSGY,0.773 ± 0.23
3,LVISM,0.348 ± 0.46
4,RGMVLS,-0.129 ± 1.1
5,IYLFFSCFFAILTNLVRPFA,3.83 ± 0.081
6,VILNYSRY,4.5 ± 0.078
7,SVLTLTSIIYLGSCKFLNFM,6.241 ± 0.032
8,YNLCWCRVIDFCLCWYCILW,4.94 ± 0.081
9,IVGVTYFCGSNRIIMMNGVL,5.956 ± 0.052
10,SVNASGT,-0.114 ± 0.8
11,DVAIRVYYMYMYERYVTRLF,inactive
12,RTDMALALQ,0.973 ± 0.34
13,IFSWTLEV,0.249 ± 0.64
14,YYGCCMVLTEPVG,6.29 ± 0.072
15,ISRVSGGQTLPSGLVMG,-0.326 ± 0.45
16,NDTAATGANDETSDFYTEYC,0.376 ± 0.66
17,ADLWKLGLRAILELGPL,-0.165 ± 1
18,EIWRFLQHRGIYYFFWSFEK,inactive
19,SLKLLYKMKLRSGQWAHIYR,0.03 ± 0.43
20,AVVVREAFLLFLKAIERAGI,-1.31 ± 0.55
21,VYPDSIVGFEADVNGCVVVP,0.713 ± 0.38
22,HFKWNYYSYSVWEWVFEQLH,-0.36 ± 0.63
23,MCEYLWCMGACNQASLTYLS,5.787 ± 0.032

row,Substance,amyloid nucleation score
1,AILYDHSYSYWVSFRNVKCK,0.215 ± 0.65
2,KRRSNSTILGPINSPRVAEG,-0.258 ± 0.42
3,YSMIDTNQFF,inactive
4,MLERHKDRTRSGLKRGARET,0.84 ± 0.46
5,SVLAGDLNLRLVFYCMFMYH,1.61 ± 0.31
6,TLHFKFMVIRRN,-0.254 ± 0.63
7,GCDLYL,-0.256 ± 0.79
8,DHADWNAYHISTEV,3.25 ± 0.05
9,CTSVGFTYHRDFWYMGFWSR,0.919 ± 0.15
10,RDHLFCG,0.654 ± 0.16
11,GSKNFPRPIPDYVWVFTGAI,0.032 ± 0.43
12,NYVYSTCYALDQCQFKYNVQ,0.655 ± 0.26
13,MIQEVLWLVSS,0.043 ± 0.49
14,PRVVGGFANISMWLATGTPF,2.94 ± 0.093
15,NYKYINVHGGYVSCLKREEE,inactive
16,QSSYVATWVTLNLGCYFDWK,0.284 ± 1.1
17,YGFDLKSGQSADASCASVSG,0.586 ± 0.31
18,IFLAWMVPAGFWR,0.56 ± 0.54
19,NRCYHFRDCQVYLTQDASWA,8.515 ± 0.048
20,CCFGVQVEGT,-0.461 ± 0.79
21,PRILLQSLRI,2.47 ± 0.064
22,HAMPVYRAEFTLISTIL,0.268 ± 0.32
23,VRWAKNNRMTLYLKITLRAK,-0.951 ± 0.37

row,Substance,amyloid nucleation score
1,KESLAFTSVGVPYVWGLYGE,0.035 ± 0.32
2,QLFGFGYVLVV,-1.12 ± 0.78
3,LAIVQ,-0.256 ± 0.42
4,IMTMTGNVDNIAVIRRS,-0.519 ± 1
5,CFVNGLRNSHLGNLVWVPIG,-1 ± 0.39
6,ICSAPGYL,inactive
7,SVTVHFENVVDIRYVCVTMG,0.341 ± 0.65
8,KQIVFSANFDHRGGLVVLRW,3.08 ± 0.073
9,DSWFEQCVVFWLKTNCPQQE,-0.069 ± 0.25
10,TDALANSNRPSKFQVH,-0.059 ± 0.37
11,HWMAFVKRTANFDVIDWSAG,-0.278 ± 0.39
12,RTHTKLGT,0.462 ± 0.42
13,NYCYLFLTYCWVQRMSEGFS,2.88 ± 0.098
14,DGFVGALDGVISSCWNTLRG,-0.701 ± 0.63
15,FYCCIITYLDMA,6.667 ± 0.026
16,SYDDGRFGVGCCFIEGYRI,-1.41 ± 1
17,NRGISLGIHLRPGCMCAAHR,0.005 ± 1
18,RVWSY,inactive
19,ILRDDGPNYRFQIRLL,4.647 ± 0.038
20,QFHFK,0.036 ± 0.35
21,YDVNGLFTITNPAANYMKPT,-1.3 ± 0.34
22,PSTYWRMILKFRVCEIVHGT,0.231 ± 0.21
23,RSSSSTMDMM,0.85 ± 0.74

row,Substance,amyloid nucleation score
1,LERFSATYLKAWSGGVCVRV,-0.067 ± 0.65
2,LWREYLVHGSP,0.329 ± 0.5
3,KYGDNSMYLMLLMVCYKGAC,-0.622 ± 1.1
4,EDWNPSTMFVRFWYNSACWY,0.204 ± 0.6
5,SMATTE,8.377 ± 0.063
6,VGFRSSCMVTSLIY,-1.64 ± 0.44
7,FVSVIILCFCVIQPMNLNSV,1.4 ± 0.15
8,SGRLNVSLLGVDSFYTELCA,-0.787 ± 0.54
9,NYILRQAGEMFGLLGDFGDG,-0.165 ± 0.45
10,LSRESTCIFSMNKDVFS,0.016 ± 1.1
11,YELHRNAIPRRRSQDSL,-0.81 ± 0.39
12,CFGMLS,-0.679 ± 1.1
13,YLFFYNMSRDRSDTWCEHAV,3.5 ± 0.094
14,NYRRGEKNGVDVNLASKQCT,0.86 ± 0.46
15,STSFRASSGDKYEFDVKHLV,0.195 ± 0.76
16,CTFLRNIGFLYWYVSPLNLG,inactive
17,TSECPVWNSFYVQNGSDLSI,1.34 ± 0.14
18,EDDVSYNSFSGQASLWKFPK,-0.818 ± 0.56

# — the supplement of paper PMC12042874
